Data published in paper PMC2728795 (Biochemistry, 2009).

B1: GST(541–605)PRG (domain or fragment)
chain: GKPKSSSQSTFHIPLSPVEVKPGNVRNIIQHFENNQQYDAPEPGTQRLSTGSFPEDLLESDSSRS
B2: GST(541–605, E573A)PRG (domain or fragment)
chain: GKPKSSSQSTFHIPLSPVEVKPGNVRNIIQHFANNQQYDAPEPGTQRLSTGSFPEDLLESDSSRS
B3: GST(541–605, F572A)PRG (domain or fragment)
chain: GKPKSSSQSTFHIPLSPVEVKPGNVRNIIQHAENNQQYDAPEPGTQRLSTGSFPEDLLESDSSRS
B4: GST(541–605, I568A)PRG (domain or fragment)
chain: GKPKSSSQSTFHIPLSPVEVKPGNVRNAIQHFENNQQYDAPEPGTQRLSTGSFPEDLLESDSSRS
B5: GST(541–605, I569A)PRG (domain or fragment)
chain: GKPKSSSQSTFHIPLSPVEVKPGNVRNIAQHFENNQQYDAPEPGTQRLSTGSFPEDLLESDSSRS

These binders were tested against F-actin (freshly polymerized actin) (UniProt P68135 1-377) (assay: co-sedimentation).
In the case of B1, the “percent bound at 5 µM F-actin” value is reported as roughly 75%. For B2, the “percent bound at 5 µM F-actin” value was roughly 25%. In the case of B3, the “percent bound at 5 µM F-actin” value is reported as roughly 25%. B4 was tested, and the “percent bound at 5 µM F-actin” value was roughly 25%. B5 was tested, and the “percent bound at 5 µM F-actin” value was roughly 25%.
